Test results taken from publication PMC5564421.
Where two headings read alike, the source gives them in different places.

Experiments:
[1] = molecular target: Cytc from equine heart (equine) (UniProt P00004); assay: SEC
[2] = molecular target: Cytc from equine heart (equine) (UniProt P00004); assay: SEC; remark: listed apart in the source
[3] = molecular target: WT* iso-1-Cytc (K72A variant of yeast iso-1-cytochrome c, with C102S) (yeast); assay: SEC
[4] = molecular target: WT* iso-1-Cytc (K72A variant of yeast iso-1-cytochrome c, with C102S) (yeast); assay: SEC; remark: listed apart in the source
[5] = molecular target: WT* iso-1-Cytc (K72A variant of yeast iso-1-cytochrome c, with C102S) (yeast); assay: SEC; remark: listed apart in the source
[6] = molecular target: WT* iso-1-Cytc (K72A variant of yeast iso-1-cytochrome c, with C102S) (yeast); assay: SEC; remark: listed apart in the source
[7] = molecular target: WT* iso-1-Cytc (K72A variant of yeast iso-1-cytochrome c, with C102S) (yeast); assay: SEC; remark: listed apart in the source
[8] = molecular target: WT* iso-1-Cytc (K72A variant of yeast iso-1-cytochrome c, with C102S) (yeast); assay: crystal structure

Sequence of Cytc from equine heart, P00004 1-105 (natural protein; other documents disagree on this pair) (P00004 whole entry): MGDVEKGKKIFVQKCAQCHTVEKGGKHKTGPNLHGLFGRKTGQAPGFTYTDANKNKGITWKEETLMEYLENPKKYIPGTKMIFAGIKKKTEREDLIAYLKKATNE

Substance | koff [1] [s⁻¹] | lifetime of the dimer [1] [days] | koff [2] [s⁻¹] | koff [3] [s⁻¹] | koff [4] [s⁻¹] | koff [5] [s⁻¹] | koff [6] [s⁻¹] | koff [7] [s⁻¹] | stoichiometry N [8]
Cytc from equine heart, P00004 1-105 (natural protein; other documents disagree on this pair) | 1.5e-05 | 7.4 | 1.6e-06 | – | – | – | – | – | –
WT* iso-1-Cytc (K72A variant of yeast iso-1-cytochrome c, with C102S) (natural protein) | – | – | – | 0.0034 | 6.1e-05 | 1.6e-05 | 0.00055 | 6.5e-06 | 2
